Bounds are passed on as bounds.

The experiment deals with T1, interferon regulatory factor 8 (IRF8) (human (endogenous in CAL-1 and primary …, UniProt Q02556 1-426)).
T1 sequence (looked up): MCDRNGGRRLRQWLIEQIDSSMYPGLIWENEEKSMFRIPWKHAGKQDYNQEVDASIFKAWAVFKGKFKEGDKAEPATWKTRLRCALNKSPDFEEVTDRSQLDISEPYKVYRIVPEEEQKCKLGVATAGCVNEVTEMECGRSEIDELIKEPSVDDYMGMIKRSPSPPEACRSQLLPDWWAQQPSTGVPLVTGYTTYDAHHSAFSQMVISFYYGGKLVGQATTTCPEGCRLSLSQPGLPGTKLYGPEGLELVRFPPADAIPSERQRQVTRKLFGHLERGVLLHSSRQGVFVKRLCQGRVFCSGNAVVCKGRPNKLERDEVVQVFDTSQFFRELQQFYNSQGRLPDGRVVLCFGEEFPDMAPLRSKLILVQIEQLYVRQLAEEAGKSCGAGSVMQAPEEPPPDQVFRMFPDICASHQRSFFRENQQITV
Briefly: proximity ligation.

B1: interferon regulatory factor 5 (IRF5) (natural protein, UniProt Q13568 1-498, looked up)
chain: MNQSIPVAPTPPRRVRLKPWLVAQVNSCQYPGLQWVNGEKKLFCIPWRHATRHGPSQDGDNTIFKAWAKETGKYTEGVDEADPAKWKANLRCALNKSRDFRLIYDGPRDMPPQPYKIYEVCSNGPAPTDSQPPEDYSFGAGEEEEEEEELQRMLPSLSLTEDVKWPPTLQPPTLRPPTLQPPTLQPPVVLGPPAPDPSPLAPPPGNPAGFRELLSEVLEPGPLPASLPPAGEQLLPDLLISPHMLPLTDLEIKFQYRGRPPRALTISNPHGCRLFYSQLEATQEQVELFGPISLEQVRFPSPEDIPSDKQRFYTNQLLDVLDRGLILQLQGQDLYAIRLCQCKVFWSGPCASAHDSCPNPIQREVKTKLFSLEHFLNELILFQKGQTNTPPPFEIFFCFGEEWPDRKPREKKLITVQVVPVAARLLLEMFSGELSWSADSIRLQISNPDLKDRMVEQFKELHHIWQSQQRLQPVAQAPPGAGLGVGQGPWPMHPAGMQ
On to B1, for which the “fold of nuclear PLA colocalization over unstimulated cells (after 1 h CpG ODN)” value was over 3 fold.

These data come from PMC6385590 (European journal of immunology, 2015).
